Residue numbers refer to the chain shown, from its start.
B1: chimeric anti human CD4-antibody (chimeric IgG4) (antibody, V domains shown)
VH: EVQLQQSGTVLARPGASVQMSCKASGYSFANYWMHWVKQRPGQGLQWIGALYPGNVDTTYNQKFKDKAKLTAVTSASTAYMELSSLTNEDSAVYYCTRMGTTLEAPLDYWGQGTTLTVSS
VL: QIVLTQSPAIMSASPGEKVAMTCSARSSVSYLYWYQQKPGSSPRLLIYDTSNLASGVPVRFIGSGSGTSYSLTISRMEAEDAATYYCQQWSDYPLTFGAGTKLELK
notes: Mouse VH and VL were cloned into pANTVhG4 (human genomic IgG4 constant region) and pANTVk (human kappa constant region) and expressed in NS0 cells; also called chimeric anti-CD4 antibody; chimeric antibody
B2: monoclonal mouse anti human CD4-antibody 30F16H5 (antibody, mouse IgG1, V domains shown)
VH: B1 VH
VL: B1 VL
notes: also called Max16H5; Max.16H5
B3: modified anti-CD4 antibody VH3/VK4 (antibody, V domains shown)
VH: B1 VH with T9S, V10E, A12K, Q19K, S28T, R40A, S91T, T115L, L116V
VL: B1 VL with M11L, V19A, V59S, S69D, R76S, L105I
B4: modified anti-CD4 antibody VH2/VK2 (antibody, V domains shown)
VH: EVQLQQSGSELKRPGASVKVSCKASGYTFANYWMHWVKQAPGQGLQWIGALYPGNVDTTYNQKFKDKAKLTADTSASTAYMELSSLTNEDTAVYYCTRMGTTLEAPLDYWGQGTLVTVSS
VL: B1 VL with I10T, M11L, V19A, V59S, I62S, S69D, R76S, L105I
B5: modified anti-CD4 antibody VH4/VK1 (antibody, V domains shown)
VH: B4 VH with S9T, V20M, D73V, T91S, L115T
VL: B1 VL with I10T, M11L, V19A, L45A, V59S, I62S, S69D, R76S, L105I
B6: modified anti-CD4 antibody VH2/VK1 (antibody, V domains shown)
VH: B4 VH
VL: B1 VL with I10T, M11L, V19A, L45A, V59S, I62S, S69D, R76S, L105I
B7: modified anti-CD4 antibody VH1/VK1 (antibody, V domains shown)
VH: B4 VH with K38R, L70I, A72R
VL: B1 VL with I10T, M11L, V19A, L45A, V59S, I62S, S69D, R76S, L105I
notes: VK1=20, VK2=18, VK3=16, VK4=14
B8: modified anti-CD4 antibody VH2/VK4 (antibody, V domains shown)
VH: B4 VH
VL: B1 VL with M11L, V19A, V59S, S69D, R76S, L105I
B9: modified anti-CD4 antibody VH4/VK4 (antibody, V domains shown)
VH: B4 VH with S9T, V20M, D73V, T91S, L115T
VL: B1 VL with M11L, V19A, V59S, S69D, R76S, L105I
B10: modified anti-CD4 antibody VH4/VK2 (antibody, V domains shown)
VH: B4 VH with S9T, V20M, D73V, T91S, L115T
VL: B1 VL with I10T, M11L, V19A, V59S, I62S, S69D, R76S, L105I
B11: modified anti-CD4 antibody VH3/VK2 (antibody, V domains shown)
VH: B4 VH with V20M, D73V
VL: B1 VL with I10T, M11L, V19A, V59S, I62S, S69D, R76S, L105I
B12: modified anti-CD4 antibody VH1/VK4 (antibody, V domains shown)
VH: B4 VH with K38R, L70I, A72R
VL: B1 VL with M11L, V19A, V59S, S69D, R76S, L105I

What follows are binders tested against T1, human CD4 (coated on ELISA plate) (human, UniProt P01730 26-396, limits assumed) (assay: competition ELISA, plate-coated CD4, competitor biotinylated mouse anti-CD4 at 0.2 µg/ml).
Description: The chimeric antibody was tested in an ELISA-based competition assay using mouse anti-CD4 antibody, biotinylated using a B-Tag micro biotinylation kit (Sigma, Poole UK). A dilution series of chimeric IgG4 or control mouse antibody from 10 μg/ml to 0.009 μg/ml was premixed with a constant concentration of biotinylated anti-CD4 (0.2 μg/ml) before incubating 100 μl/well for 1 hour at room temperature in a Nunc MaxiSorp 96 well flat bottom microtitre plate (Fisher, Loughborough, UK) pre-coated with 50 μl/well of 1 μg/ml CD4. The binding of the biotinylated mAb was determined by incubating for 1 h at room temperature with 100 μl/well of a 1/500 dilution of streptavidin-HRP (Sigma), followed by detection with 100 μl/well OPD substrate (Sigma). After stopping the reaction with 50 μl/well 3M HCl, absorbance at 490 nm was measured using a Dynex Technologies (Worthing, UK) MRX TC II plate reader.
Therefore the correct variable region sequences have been identified and cloned.
In the case of B1, the IC50 is reported as 0.25 µg/mL. Work on B2 yielded an IC50 of 0.18 µg/mL.

These binders were tested against T1, human CD4 (coated on ELISA plate) (assay: competition ELISA, plate-coated human CD4, competitor biotinylated mouse antibody at 0.2 µg/ml).
In the case of B3, the “Relative Binding (IC50 of test sample divided by IC50 of mouse antibody)” value is reported as 1.44 fold. With B4 the “Relative Binding (IC50 of test sample divided by IC50 of mouse antibody)” value was 0.96 fold. In the case of B5, the “Relative Binding (IC50 of test sample divided by IC50 of mouse antibody)” value is reported as 3.89 fold. In the case of B6, the “Relative Binding (IC50 of test sample divided by IC50 of mouse antibody)” value is reported as 8.66 fold. B7 was tested, and the “Relative Binding (IC50 of test sample divided by IC50 of mouse antibody)” value was 0.14 fold. For B8, the “Relative Binding (IC50 of test sample divided by IC50 of mouse antibody)” value was 1.44 fold. In the case of B9, the “Relative Binding (IC50 of test sample divided by IC50 of mouse antibody)” value is reported as 0.49 fold. B10 was tested, and the “Relative Binding (IC50 of test sample divided by IC50 of mouse antibody)” value was 0.73 fold. B11 was tested, and the “Relative Binding (IC50 of test sample divided by IC50 of mouse antibody)” value was 1.77 fold. B12 was tested, and the “Relative Binding (IC50 of test sample divided by IC50 of mouse antibody)” value was 5.06 fold.
